{"source": "patent US6287813", "biological_target": "tTA (TetR-VP16) (/ Herpes simplex virus) (UniProt P04483)", "sequence (P04483 whole entry)": "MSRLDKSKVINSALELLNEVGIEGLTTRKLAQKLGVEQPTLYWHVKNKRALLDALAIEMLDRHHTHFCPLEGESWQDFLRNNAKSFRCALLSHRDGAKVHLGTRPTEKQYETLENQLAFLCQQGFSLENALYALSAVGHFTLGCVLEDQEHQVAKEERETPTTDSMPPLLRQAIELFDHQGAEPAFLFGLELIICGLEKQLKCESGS", "assay": "cell_activity", "settings": "CHO-TWIN195 without antibiotic; 8.57% with TET", "data": [{"substance": "PhCMV*-1 (tet-responsive promoter)", "values": [{"measurement": "activity", "result": 18.6, "unit": "mU/ml SEAP"}]}]}
